Measurements taken from publication PMC5457685, “Pellino-1 promotes lung carcinogenesis via the stabilization of Slug and Snail through K63-mediated polyubiquitination” (Cell Death and Differentiation, 2016).

Biological target: T1, His-tagged Pellino-1 (human, UniProt Q96FA3 1-418)
T1 construct: Pellino-1, human; Pellino-1 FL subcloned into a His6-tagged fusion plasmid; The pull-down text names only 'His-Pellino-1'; also called His-Pellino-1; source: purified His-tagged protein
T1 sequence (looked up): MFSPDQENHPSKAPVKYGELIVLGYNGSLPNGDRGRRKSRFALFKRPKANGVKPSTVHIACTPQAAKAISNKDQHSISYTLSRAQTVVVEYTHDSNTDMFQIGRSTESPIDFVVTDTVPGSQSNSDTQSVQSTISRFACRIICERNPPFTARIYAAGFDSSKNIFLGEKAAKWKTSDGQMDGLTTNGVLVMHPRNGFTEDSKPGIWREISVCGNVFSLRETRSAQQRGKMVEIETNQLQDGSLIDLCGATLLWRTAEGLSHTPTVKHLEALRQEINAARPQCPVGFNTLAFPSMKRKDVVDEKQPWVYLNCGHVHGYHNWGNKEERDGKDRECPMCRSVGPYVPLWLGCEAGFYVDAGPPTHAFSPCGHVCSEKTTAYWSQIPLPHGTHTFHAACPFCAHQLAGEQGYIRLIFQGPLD
Assay: pull-down; GST-Slug or GST-Snail adsorbed onto glutathione beads, incubated with purified His-tagged Pellino-1; bound proteins immunoblotted
Settings: both partners purified

binding result: binds
B1: GST–Slug fusion protein (natural protein, human, UniProt O43623 1-268, looked up)
chain: MPRSFLVKKHFNASKKPNYSELDTHTVIISPYLYESYSMPVIPQPEILSSGAYSPITVWTTAAPFHAQLPNGLSPLSGYSSSLGRVSPPPPSDTSSKDHSGSESPISDEEERLQSKLSDPHAIEAEKFQCNLCNKTYSTFSGLAKHKQLHCDAQSRKSFSCKYCDKEYVSLGALKMHIRTHTLPCVCKICGKAFSRPWLLQGHIRTHTGEKPFSCPHCNRAFADRSNLRAHLQTHSDVKKYQCKNCSKTFSRMSLLHKHEESGCCVAH
notes: Slug, human; pGEX-KG vector encoding GST-tagged human Slug (gift); source: GST fusion protein (pGEX-KG vector) adsorbed onto glutathione beads
